We go through three molecules from patent US20220227872A1 (LUDWIG INSTITUTE FOR CANCER RESEARCH, published 2022).

To fix the notation:
B2: murine tumor endothelial marker 1 (TEM1) on cells (receptor)
chain: QVPWTPEPRAACGPSSCYALFPRRRTFLEAWRACRELGGNLATPRTPEEAQRVDSLVGVGPANGLLWIGLQRQARQCQPQRPLRGFIWTTGDQDTAFTNWAQPATEGPCPAQRCAALEASGEHRWLEGSCTLAVDGYLCQFGFEGACPALPLEVGQAGPAVYTTPFNLVSSEFEWLPFGSVAAVQCQAGRGASLLCVKQPSGGVGWSQTGPLCPGTGCGPDNGGCEHECVEEVDGAVSCRCSEGFRLAADGHSCEDPCAQAPCEQQCEPGGPQGYSCHCRLGFRPAEDDPHRCVDTDECQIAGVCQQMCVNYVGGFECYCSEGHELEADGISCSPAGAMGAQASQDLRDELLDDGEEGEDEEEPWEDFDGTWTEEQGILWLAPTHPPDFGLPYRPNFPQDGEPQRLHLEPTWPPPLSAPRGPYHSSVVSATRPMVISATRPTLPSAHKTSVISATRPPLSPVHPPAMAPATPPAVFSEHQIPKIKANYPDLPFGHKPGITSATHPARSPPYQPPIISTNYPQVFPPHQAPMSPDTHTITYLPPVPPHLDPGDTTSKAHQHPLLPDAPGIRTQAPQLSVSALQPPLPTNSRSSVHETPVPAANQPPAFPSSPLPPQRPTNQTSSISPTHSYSRAPLVPREGVPSPKSVPQLPSVPSTAAPTALAESGLAGQSQRDDRWLLVALLVPTCVFLVVLLALGIVYCTRCGSHAPNKRITDCYRWVTHAGNKSSTEPMPPRGSLTGVQTCRTSV
notes: also called mTEM1; murine TEM1
B3: human tumor endothelial marker 1 (TEM1) on cells (receptor)
chain: QDPWAAEPRAACGPSSCYALFPRRRTFLEAWRACRELGGDLATPRTPEEAQRVDSLVGAGPASRLLWIGLQRQARQCQLQRPLRGFTWTTGDQDTAFTNWAQPASGGPCPAQRCVALEASGEHRWLEGSCTLAVDGYLCQFGFEGACPALQDEAGQAGPAVYTTPFHLVSTEFEWLPFGSVAAVQCQAGRGASLLCVKQPEGGVGWSRAGPLCLGTGCSPDNGGCEHECVEEVDGHVSCRCTEGFRLAADGRSCEDPCAQAPCEQQCEPGGPQGYSCHCRLGFRPAEDDPHRCVDTDECQIAGVCQQMCVNYVGGFECYCSEGHELEADGISCSPAGAMGAQASQDLGDELLDDGEDEEDEDEAWKAFNGGWTEMPGILWMEPTQPPDFALAYRPSFPEDREPQIPYPEPTWPPPLSAPRVPYHSSVLSVTRPVVVSATHPTLPSAHQPPVIPATHPALSRDHQIPVIAANYPDLPSAYQPGILSVSHSAQPPAHQPPMISTKYPELFPAHQSPMFPDTRVAGTQTTTHLPGIPPNHAPLVTTLGAQLPPQAPDALVLRTQATQLPIIPTAQPSLTTTSRSPVSPAHQISVPAATQPAALPTLLPSQSPTNQTSPISPTHPHSKAPQIPREDGPSPKLALWLPSPAPTAAPTALGEAGLAEHSQRDDRWLLVALLVPTCVFLVVLLALGIVYCTRCGPHAPNKRITDCYRWVIHAGSKSPTEPMPPRGSLTGVQTCRTSV
notes: Endogenous on A673 and SK-N-AS cells, or full length hTEM1 ORF (NM_020404.3) in pTagGFP2-N transiently expressed in HEK293T cells; also called hTEM1; human TEM1

Test [1] concerns the target B2. Nature of the test: FACS, scFv-Fc 2 µg/ml on human and murine cell lines. As for the experimental part:
(§1) A673, human Ewing's sarcoma; SK-N-AS, human neuroblastoma; 2H11, murine tumor vascular endothelium; TC1, murine lung adenocarcinoma; HEK293-6E, human embryonic kidney; HT-1080, human fibrosarcoma; MDA-MB-231, human mammary carcinoma; MS1, murine pancreatic islet endothelium.
(§2) Adherent cells were detached using 10 mM EDTA, counted and resuspended in fresh, complete culture medium. All subsequent steps were performed on ice. […] After washing three times with FACS buffer, the secondary antibody, Alexa Fluor 647 AffiniPure Goat Anti-Human IgG (Jackson Immunoresearch, #109-605-098, 1:200 dilution) was added. Following incubation for 30 min the cells were washed again three times. Immediately before data acquisition, dead cells were stained with 4′,6-Diamidino-2-phenylindole (DAPI, 1:2000 dilution). Data was acquired using an LSR-II flow cytometer equipped with […] software (BD Biosciences). Data analysis and plotting were carried out using FlowJo v10 (FlowJo LLC).
(In flow cytometry, cells or beads pass a laser one at a time.)

For test [2], the target named is B3. Nature of the test: FACS on cell lines. As for the experimental part: as §1, §2
Test [3] has as its target T1, anti-TEM1 scFv-Fc fusion 3B6.
T1 construct: also called 3B6 scFv-Fc
As to the kind of experiment: FACS, scFv-Fc 2 µg/ml on human and murine cell lines. As for the experimental part:
as §1, §2

Test [4] shares this target. As to the kind of experiment: FACS on cell lines. As for the experimental part: as §1, §2

T1 sequence (VH, as listed by the source, chain 1 of 2): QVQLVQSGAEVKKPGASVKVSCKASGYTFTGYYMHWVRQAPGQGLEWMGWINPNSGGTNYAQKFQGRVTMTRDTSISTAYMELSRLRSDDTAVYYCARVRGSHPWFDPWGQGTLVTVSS
T1 sequence (VL, as listed by the source, chain 2 of 2): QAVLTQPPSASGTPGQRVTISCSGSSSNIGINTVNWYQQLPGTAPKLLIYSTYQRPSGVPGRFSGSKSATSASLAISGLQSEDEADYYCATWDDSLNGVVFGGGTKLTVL

B1: anti-TEM1 scFv-Fc fusion 2B11 (Fc fusion)
VH: EVQLVETGGGLVKPGGSLRLSCAASGFTFNTYTMNWVRQAPGKGLEWVSSISSSSTYIYYADSVKGRFTISRDNAKNSLYLQMNSLRAEDTAVYYCAKSIVGATHDAFDIWGQGTMVTVSS
VL: DIQMTQSPPTLSASVGDRVTITCRASQSISRWLAWYQQKPGKAPNLLIYDASNLQSGVPSRFSGSGSGTEFTLTISSLQPDDFGTYYCQQYKNYSPTFGQGTKLEIK
notes: also called 2B11 scFv-Fc
As for B1, the binding result in test [1] and in test [2] was “binds” throughout.

For the molecule B2, in test [3], the binding result is listed as “binds”.

As to B3, in test [4], the binding result is “binds”.
